Test results from article PMC12375101.

What was measured:
Aurora A [1] = molecular target: Aurora A (UniProt O14965); assay: GST-Aurora A pull-down of MBP-Bora; conditions: reference: unphosphorylated MBP-Bora; sites S59
Aurora A [2] = molecular target: Aurora A (UniProt O14965); assay: Myc co-IP, Aurora A immunoblot; conditions: reference: wild type Bora-Myc; sites S59
Aurora A [3] = molecular target: Aurora A (UniProt O14965); assay: GFP co-IP, Aurora A immunoblot; conditions: reference: wild type Bora-GFP; sites S59
Aurora A [4] = molecular target: Aurora A (UniProt O14965); assay: co-IP of Bora-GFP, Aurora A immunoblot; conditions: reference: wild type Bora-GFP; sites S59

binding against the reference (Aurora A [1]) | binding against the reference (Aurora A [2]) | binding against the reference (Aurora A [3]) | binding against the reference (Aurora A [4]) | Substance
stronger | – | – | – | Bora (from UniProt Q6PGQ7) MBP-Bora-S59ph (genetic code expansion)
– | weaker | weaker | weaker | Bora (from UniProt Q6PGQ7) S59A
